We go through six substances from patent US20230285581A1.

For test [1], the target named is human MSR1 extracellular domain expressed with a N-terminal nonahistidine tag (His9-hMSR1; R&D Systems, Cat #2708-MS) (human) (UniProt P21757). In words: competition ELISA; 100 nM antibody, competitor Ac-LDL, plate-coated His9-hMSR1. Background: An ELISA detects its analyte on a solid surface through an enzyme-linked reagent.
Test [2] has the same target. In words: competition ELISA; 1 µM antibody, competitor 10 nM Ox-LDL, plate-coated His9-hMSR1.
The target is the same in test [3]. The experiment in a line: competition ELISA; 300 nM antibody, competitor biot-AGE-BSA, plate-coated His9-hMSR1.
The target of test [4] is mouse MSR1 on RAW264.7 cells (mouse) (UniProt P30204). The experiment in a line: flow cytometry, RAW264.7 cells, 10 ug/mL. Background: Flow cytometry measures light scatter and fluorescence of single cells or particles in a stream.
Test [5] deals with human MSR1 endogenously expressed on PMA-differentiated THP-1 cells (human) (UniProt P21757). In words: confocal imaging, 10 µg/mL antibody + Alexa Fluor 488 secondary on PMA-differentiated THP-1 cells.
Test [6] addresses full length monkey MSR1 on HEK293.mfMSR1 cells (Macaca fascicularis). The experiment in a line: ECL cell binding, HEK293.mfMSR1 cells.
In test [7] the target is full length human MSR1 with a C-terminal Myc tag on HEK293.Myc.hMSR1 cells (human) (UniProt P21757). The experiment in a line: ECL cell binding, HEK293.Myc.hMSR1 cells.
In test [8] the target is endogenously expressed human MSR1 on PMA-treated THP-1 cells (human) (UniProt P21757). In words: ECL cell binding, PMA-treated THP-1 cells.
Chain of endogenously expressed human MSR1 on PMA-treated THP-1 cells (human) (P21757 whole entry): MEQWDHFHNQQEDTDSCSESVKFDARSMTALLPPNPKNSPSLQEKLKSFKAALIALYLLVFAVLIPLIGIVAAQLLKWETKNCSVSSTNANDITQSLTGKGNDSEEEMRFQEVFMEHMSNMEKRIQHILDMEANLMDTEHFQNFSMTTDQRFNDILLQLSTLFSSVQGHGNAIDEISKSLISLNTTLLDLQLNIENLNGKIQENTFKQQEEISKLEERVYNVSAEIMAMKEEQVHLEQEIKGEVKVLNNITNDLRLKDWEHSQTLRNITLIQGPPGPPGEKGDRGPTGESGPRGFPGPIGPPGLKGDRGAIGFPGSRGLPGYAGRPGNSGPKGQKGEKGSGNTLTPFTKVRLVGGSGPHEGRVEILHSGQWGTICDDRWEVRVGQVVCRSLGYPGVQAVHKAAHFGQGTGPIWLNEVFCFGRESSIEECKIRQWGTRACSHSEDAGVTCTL

Chain of human MSR1 extracellular domain expressed with a N-terminal nonahistidine tag (His9-hMSR1; R&D Systems, Cat #2708-MS) (human) (P21757 other isoform, or with tags, fused parts or gaps): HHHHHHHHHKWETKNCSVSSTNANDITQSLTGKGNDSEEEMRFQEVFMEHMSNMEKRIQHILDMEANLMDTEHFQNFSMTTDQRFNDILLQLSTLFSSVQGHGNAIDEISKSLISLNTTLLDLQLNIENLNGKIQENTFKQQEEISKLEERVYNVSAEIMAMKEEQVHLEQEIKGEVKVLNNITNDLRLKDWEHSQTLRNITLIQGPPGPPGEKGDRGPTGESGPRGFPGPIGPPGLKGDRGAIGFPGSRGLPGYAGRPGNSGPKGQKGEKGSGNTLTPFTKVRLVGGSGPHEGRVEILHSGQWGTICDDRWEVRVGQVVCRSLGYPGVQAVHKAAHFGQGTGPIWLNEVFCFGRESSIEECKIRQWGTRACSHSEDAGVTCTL
Chain of full length monkey MSR1 on HEK293.mfMSR1 cells (Macaca fascicularis) (chain, as listed by the source): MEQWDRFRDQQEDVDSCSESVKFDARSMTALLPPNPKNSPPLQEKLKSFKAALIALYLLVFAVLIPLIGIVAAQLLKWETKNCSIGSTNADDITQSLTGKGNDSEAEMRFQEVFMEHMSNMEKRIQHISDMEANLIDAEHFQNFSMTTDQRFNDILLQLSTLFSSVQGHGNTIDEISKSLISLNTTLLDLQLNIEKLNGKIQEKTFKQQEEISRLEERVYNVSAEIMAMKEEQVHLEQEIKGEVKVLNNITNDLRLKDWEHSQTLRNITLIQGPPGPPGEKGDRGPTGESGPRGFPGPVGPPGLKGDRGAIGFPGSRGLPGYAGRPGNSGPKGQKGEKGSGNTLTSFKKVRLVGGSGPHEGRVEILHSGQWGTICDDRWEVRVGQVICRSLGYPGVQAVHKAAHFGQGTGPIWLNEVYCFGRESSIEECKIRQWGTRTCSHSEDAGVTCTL
Chain of mouse MSR1 on RAW264.7 cells (mouse) (P30204 whole entry): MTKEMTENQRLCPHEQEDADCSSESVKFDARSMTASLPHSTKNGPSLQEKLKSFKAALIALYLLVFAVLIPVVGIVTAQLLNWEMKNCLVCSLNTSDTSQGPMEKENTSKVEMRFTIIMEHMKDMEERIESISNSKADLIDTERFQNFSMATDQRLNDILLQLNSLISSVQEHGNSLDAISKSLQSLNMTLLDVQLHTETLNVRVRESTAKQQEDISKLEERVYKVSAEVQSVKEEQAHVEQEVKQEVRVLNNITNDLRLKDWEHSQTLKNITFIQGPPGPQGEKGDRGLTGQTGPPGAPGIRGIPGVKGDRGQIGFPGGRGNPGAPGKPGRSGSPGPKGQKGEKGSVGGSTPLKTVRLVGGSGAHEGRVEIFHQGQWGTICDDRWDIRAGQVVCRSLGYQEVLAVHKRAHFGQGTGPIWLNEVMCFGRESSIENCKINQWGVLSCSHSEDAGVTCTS
Chain of full length human MSR1 with a C-terminal Myc tag on HEK293.Myc.hMSR1 cells (human) (P21757 whole entry): as the sequence (P21757 whole entry) above
Chain of human MSR1 endogenously expressed on PMA-differentiated THP-1 cells (human) (P21757 whole entry): as above

Take “Mouse IgG1 Isotype control mAb (antibody)”: the % Blocking is -4% in test [1], 16% in test [2] and 7% in test [3].
For “commercial anti-mouse MSR1 antibody (Sino Biological, Cat #50129-R004)”, in test [4], the MFI amounted to 245000 and the S/N was 97.
“Human IgG1 Isotype Control mAb (antibody)”: the figures for the % Blocking in test [1], in test [2] and in test [3] were -8%, 3% and 4%, respectively.
Turning to Isotype control (Table 19) (antibody), in test [5], the Total Binding at 4° C. (RFU) worked out at 186000 RFU and the Total Binding at 37° C. (RFU) amounted to 1.09e+06 RFU.
Take hIgG1 Isotype Control (antibody): the ratio of 11 nM antibody binding signal (RLU) to isotype control in test [6], in test [7] and in test [8] was 1 each time.
For mIgG Isotype Control (antibody), the ratio of 11 nM antibody binding signal (RLU) to isotype control in test [6], in test [7] and in test [8] was 1 throughout.
